Reference: paper PMC12174366 (Nature Communications, 2025)

Biological target: the molecule itself
Experiment: cryo-EM structure

B1: full length human TRPML1 with the V432A/A433G mutations (natural protein, UniProt Q9GZU1 1-580, looked up)
chain: MTAPAGPRGSETERLLTPNPGYGTQAGPSPAPPTPPEEEDLRRRLKYFFMSPCDKFRAKGRKPCKLMLQVVKILVVTVQLILFGLSNQLAVTFREENTIAFRHLFLLGYSDGADDTFAAYTREQLYQAIFHAVDQYLALPDVSLGRYAYVRGGGDPWTNGSGLALCQRYYHRGHVDPANDTFDIDPMVVTDCIQVDPPERPPPPPSDDLTLLESSSSYKNLTLKFHKLVNVTIHFRLKTINLQSLINNEIPDCYTFSVLITFDNKAHSGRIPISLETQAHIQECKHPSVFQHGDNSFRLLFDVVVILTCSLSFLLCARSLLRGFLLQNEFVGFMWRQRGRVISLWERLEFVNGWYILLVTSDVLTISGTIMKIGIEAKNLASYDVCSILLGTSTLLVWVGVIRYLTFFHNYNILIATLRVALPSVMRFCCCAGVIYLGYCFCGWIVLGPYHVKFRSLSMVSECLFSLINGDDMFVTFAAMQAQQGRSSLVWLFSQLYLYSFISLFIYMVLSLFIALITGAYDTIKHPGGAGAEESELQAYIAQCQDSPTSGKFRRGSGSACSLLCCCGRDPSEEHSLLVN
B1: binds.
